Conditions in all cases: both partners purified
One test addresses T1, Human serum albumin (Homo sapiens, UniProt P02768).
T1 construct: also called HSA
The test can be described thus: pull-down; antibody fragment captured by RGS-tag on AC-resin co- or post-translationally, washed, treated with neutral buffer or 2 M GdnHCl/100 mM DTT then 1 M GdnHCl/10 mM GSH (or fully refolded from 6 M GdnHCl); incubated with 50 uL of 10 uM antigen for 3 h at RT; washed; eluted by boiling or by PreScission cleavage; SDS-PAGE.

The target of another test is human IL-6 (Homo sapiens, UniProt P05231). The description is as above.
human IL-6, sequence (P05231 30-212): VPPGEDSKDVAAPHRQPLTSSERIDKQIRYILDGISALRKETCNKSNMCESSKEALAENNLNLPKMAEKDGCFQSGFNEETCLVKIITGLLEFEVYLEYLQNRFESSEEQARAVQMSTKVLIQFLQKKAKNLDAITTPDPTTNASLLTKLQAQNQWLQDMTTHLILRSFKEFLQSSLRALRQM
The next test has as its target Trypsin (UniProt P00760 18-246). The test can be described thus: enzyme inhibition assay (trypsin-inhibitory assay); 100 pM trypsin pre-incubated with peptide (twofold dilution series from 4 nM to 3.9 pM) for 3 h at room temperature in 0.1 M NaCl, 10 mM CaCl2, 0.005% Triton X-100, 0.1 M Tris-HCl pH 8.0; residual activity on Boc-Q-A-R-AMC (10 uM); Ki from IC50 by a tight-binding equation, Km 12 uM.

The text below walks through data of PMC8752827 (Nature Communications, 2022).

Where no end group is shown, it is not given here.

Trypsin, sequence (P00760 24-246): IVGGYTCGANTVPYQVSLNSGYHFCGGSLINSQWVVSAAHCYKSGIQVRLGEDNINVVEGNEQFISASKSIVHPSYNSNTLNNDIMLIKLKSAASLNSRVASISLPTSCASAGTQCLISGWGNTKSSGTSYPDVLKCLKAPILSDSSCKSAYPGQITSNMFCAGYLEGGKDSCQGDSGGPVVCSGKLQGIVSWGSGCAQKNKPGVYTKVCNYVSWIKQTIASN

B1: anti-HSA scFv (scFv, V domains shown)
VH: EVQLLESGGGLVQPGGSLRLSCAVSGIDLSNYAINWVRQAPGKGLEWIGIIWASGTTFYATWAKGRFTISRDNSKNTVYLQMNSLRAEDTAVYYCARTVPGYSTAPYFDLWGQGTLVTVSS
VL: DIQMTQSPSSVSASVGDRVTITCQSSPSVWSNFLSWYQQKPGKAPKLLIYEASKLTSGVPSRFSGSGSGTDFTLTISSLQPEDFATYYCGGGYSSISDTTFGGGTKVEIK
Take B1: the binding result with Human serum albumin is recorded as “binds”.

B2: anti-HSA Fab (Fab, V domains shown)
VH: B1 VH
VL: B1 VL
As to B2, in the test with Human serum albumin, the binding result is “binds”.

B3: anti-IL-6 scFv (scFv, V domains shown)
VH: QVQLVESGGGLVQPGGSLRLSCAASGFNFNDYFMNWVRQAPGKGLEWVAQMRNKNYQYGTYYAESLEGRFTISRDDSKNSLYLQMNSLKTEDTAVYYCARESYYGFTSYWGQGTLVTVSG
VL: GIQMTQSPSSLSASVGDRVTITCQASQDIGISLSWYQQKPGKAPKLLIYNANNLADGVPSRFSGSGSGTDFTLTISSLQPEDFATYYCLQHNSAPYTFGQGTKLETG
Consider B3, for which the binding result in the test with human IL-6 is “binds”.

B4: wild-type MCoTI-II fused to RGS (peptide)
peptide: SGSDGGVCPKILKKCRRDSDCPGACICRGNGYCGGAG
modifications: disulfide (positions not given here); also: three disulfides, pairing not given here, fused to RGS
notes: also called wtMCoTI-RGS; wtMCoTI
As for B4, in the test with Trypsin, the “fold Ki against prmMCoTI” value was about 4 fold.

B5: anti-IL-6 Fab (Fab, V domains shown)
VH: EVQLQESGPGLVKPSQTLSLTCTVSGGSITTRYYAWSWIRQPPGKGLEWMGVIDYDGDTYYSPSLKSRTSISWDTSKNQFSLQLSSVTPEDTAVYYCARDPDVVTGFHYDYWGQGTQVTVSS
VL: QAVLTQPPLVSGTPGQTVTISCAGANNDIGTYAYVSWYQQLPGTAPKLLIYKVTTRASGIPSRFSGSKSGNTASLTISGLQSEDEADYYCASYRNFNNAVFGRGTHLTVL
On to B5, for which the binding result with human IL-6 is “binds”.
